Experimental data reported in patent US20250152729A1 (CANCER RESEARCH TECHNOLOGY, published 2025).
Like-named read-outs stand apart in the source and are kept apart here.

T1: human SEMA4A expressed on cells (UniProt ID Q9H3S1, isoform 1) (human, UniProt Q9H3S1 33-761)
T1 sequence: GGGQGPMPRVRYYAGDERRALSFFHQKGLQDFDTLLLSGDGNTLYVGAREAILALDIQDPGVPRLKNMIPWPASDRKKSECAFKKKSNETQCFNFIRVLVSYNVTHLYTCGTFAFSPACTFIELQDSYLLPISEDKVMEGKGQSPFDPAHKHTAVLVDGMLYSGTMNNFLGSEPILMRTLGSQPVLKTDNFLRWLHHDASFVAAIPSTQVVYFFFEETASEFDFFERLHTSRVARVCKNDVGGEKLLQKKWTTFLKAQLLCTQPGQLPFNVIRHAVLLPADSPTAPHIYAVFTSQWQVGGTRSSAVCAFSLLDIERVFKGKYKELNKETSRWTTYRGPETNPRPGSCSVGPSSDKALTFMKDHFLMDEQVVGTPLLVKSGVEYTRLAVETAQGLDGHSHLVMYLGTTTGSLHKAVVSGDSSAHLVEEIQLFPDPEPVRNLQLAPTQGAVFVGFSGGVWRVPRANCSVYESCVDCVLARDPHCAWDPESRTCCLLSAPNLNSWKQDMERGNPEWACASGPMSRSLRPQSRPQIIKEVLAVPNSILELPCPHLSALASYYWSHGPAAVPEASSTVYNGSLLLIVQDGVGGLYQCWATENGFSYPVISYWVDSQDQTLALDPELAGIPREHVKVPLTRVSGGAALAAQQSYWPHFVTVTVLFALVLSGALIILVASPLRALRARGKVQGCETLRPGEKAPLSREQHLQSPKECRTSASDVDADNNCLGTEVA

T2: human SEMA4B expressed on expi293 cells (human, UniProt Q9NPR2 44-837)
T2 construct: whole, on cells
T2 sequence (looked up): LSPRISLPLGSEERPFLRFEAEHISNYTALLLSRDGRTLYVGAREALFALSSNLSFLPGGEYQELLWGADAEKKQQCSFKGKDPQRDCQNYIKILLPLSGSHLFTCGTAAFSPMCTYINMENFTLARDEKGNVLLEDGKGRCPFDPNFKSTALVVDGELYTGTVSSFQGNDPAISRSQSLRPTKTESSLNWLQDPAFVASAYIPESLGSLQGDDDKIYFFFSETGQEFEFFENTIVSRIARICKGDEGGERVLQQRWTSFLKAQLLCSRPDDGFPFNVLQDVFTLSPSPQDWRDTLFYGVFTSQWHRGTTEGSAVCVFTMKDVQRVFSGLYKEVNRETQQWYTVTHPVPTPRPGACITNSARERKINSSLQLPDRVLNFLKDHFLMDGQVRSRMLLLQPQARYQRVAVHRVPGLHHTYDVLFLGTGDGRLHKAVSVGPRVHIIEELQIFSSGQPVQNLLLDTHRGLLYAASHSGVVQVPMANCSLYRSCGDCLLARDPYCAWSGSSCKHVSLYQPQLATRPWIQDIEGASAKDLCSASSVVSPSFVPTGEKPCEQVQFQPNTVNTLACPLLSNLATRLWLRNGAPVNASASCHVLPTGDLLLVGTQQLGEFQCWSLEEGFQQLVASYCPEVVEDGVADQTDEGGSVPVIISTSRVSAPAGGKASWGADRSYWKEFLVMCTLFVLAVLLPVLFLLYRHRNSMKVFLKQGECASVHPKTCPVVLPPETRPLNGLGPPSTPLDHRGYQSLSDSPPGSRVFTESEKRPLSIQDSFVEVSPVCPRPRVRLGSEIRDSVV

T3: mouse SEMA4A expressed on expi293 cells (UniProt ID Q62178) (mouse, UniProt Q62178 33-760)
T3 construct: Transient transfection in expi293 cells
T3 sequence: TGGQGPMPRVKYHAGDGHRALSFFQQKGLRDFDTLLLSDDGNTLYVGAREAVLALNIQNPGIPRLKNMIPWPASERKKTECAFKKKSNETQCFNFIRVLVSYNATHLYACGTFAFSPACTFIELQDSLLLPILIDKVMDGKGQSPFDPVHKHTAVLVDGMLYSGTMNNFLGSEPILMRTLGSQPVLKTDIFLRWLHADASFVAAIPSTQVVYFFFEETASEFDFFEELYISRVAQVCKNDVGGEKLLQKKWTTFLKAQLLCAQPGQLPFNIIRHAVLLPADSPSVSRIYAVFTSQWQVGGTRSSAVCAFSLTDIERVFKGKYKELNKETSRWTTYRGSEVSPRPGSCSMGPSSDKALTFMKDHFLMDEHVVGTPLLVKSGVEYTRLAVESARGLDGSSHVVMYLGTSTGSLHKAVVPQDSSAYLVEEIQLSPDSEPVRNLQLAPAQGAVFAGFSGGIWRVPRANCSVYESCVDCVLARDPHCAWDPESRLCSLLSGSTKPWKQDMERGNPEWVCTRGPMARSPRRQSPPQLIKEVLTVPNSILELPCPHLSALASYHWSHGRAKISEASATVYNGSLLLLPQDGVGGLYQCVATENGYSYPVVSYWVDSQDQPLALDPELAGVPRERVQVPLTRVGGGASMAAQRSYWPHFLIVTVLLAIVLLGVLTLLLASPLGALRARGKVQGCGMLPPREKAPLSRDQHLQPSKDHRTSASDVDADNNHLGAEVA


Experiments:
[1] = biological target: T1, human SEMA4A expressed on cells …; assay: cell-based or functional assay
[2] = biological target: T1, human SEMA4A expressed on cells …; assay: cell-based or functional assay; remark: listed apart in the source
[3] = biological target: T2, human SEMA4B expressed on expi293 cells; assay: Mirrorball direct binding, dilution series on expi293 cells transiently transfected with human SEMA4B, anti-human Alexa Fluor 647
Experimental: To determine the specificity profile of each purified human Alya IgG1 conjugated to McMMAF, a dilution series was tested for binding to human SEMA4A, human SEMA4B and mock transfected cells (transient transfections set up in expi 293 cells.) The three assays employed methods described in section 2.3, using the appropriate cells and substituting the un-purified scFv periplasmic preparation with the human Alya IgG1 conjugated to McMMAF. Data was analysed as Count x median mean intensity (x FLU).

[4] = biological target: T3, mouse SEMA4A expressed on expi293 cells …; assay: Mirrorball direct binding, dilution series on expi293 cells transiently transfected with mouse SEMA4A, anti-human Alexa Fluor 647
Description: (§1) Hits from the primary screening were re-formatted into the human Alya IgG1 vector and re-expressed and purified as described in section 4.1. In addition, a single clone was identified that contained an Asparagine deamidation motif (Asn Gly) within its VHCDR2. This potential sequence liability was de-risked by synthesising de novo two clonal variant VH genes (Asn Ala and Gln Gly) and cloning these sequences into the human Alya IgG1 expression vector. To determine the specificity profile of each purified human Alya IgG1, a dilution series was tested for binding to human SEMA4A, mouse SEMA4A, cyno SEMA4A, human SEMA4B and mock transfected cells (transient transfections set up in expi 293 cells.) The five assays employed methods described in section 2.3, using the appropriate cells and substituting the un-purified scFv periplasmic preparation with the recombinant human Alya IgG1 dilution series. Data was analysed as Count x median mean intensity (x FLU).

[5] = biological target: T2, human SEMA4B expressed on expi293 cells; assay: Mirrorball direct binding, dilution series on expi293 cells transiently transfected with human SEMA4B, anti-human Alexa Fluor 647; remark: listed apart in the source
Description: as §1

[6] = biological target: T1, human SEMA4A expressed on cells …; assay: cell-based or functional assay; remark: listed apart in the source

Binder | Average KARPAS 25 IC50 [pM], cell kill [1] [pM] | Average MM1.S IC50 [pM], cell kill [1] [pM] | Average NCI-H929 IC50 [pM], cell kill [1] [pM] | binding result [3] | binding result [4] | also measured
5Hg1-5Lg2 human Alya IgG1 conjugated to McMMAF (antibody, V domains shown, McMMAF on the engineered cysteines 239iCys and S442C (EU numbering) of the heavy constant region, Antibody-drug conjugate; human IgG1 Alya constant) VH: QVQLVQSGAEVKKPGASVKVSCKASGYTFTDYWMHWVRQAPGQGLEWMGAIDTSDSYTSYNQKFKGRVTMTRDTSTSTVYMELSSLRSEDTAVYYCARDYGNFYYYAMDYWGQGTLVTVSS VL: QAVVTQEPSLTVSPGGTVTLTCRSSTGAVTTSNYANWFQQKPGQAPRTLIYGTNNRAPWTPARFSGSLLGGKAALTLLGAQPEDEAEYYCALWYSNHWVFGGGTKLTVL | 317 | 15.8 | 59.4 | no binding (tested: log (M) -8 (1e-8 M)) | – | EC50 (nM), Fab-pHast internalisation into NCI-H929 [2]: 0.75 nM; Fold-Change at 6 hours (10 nM), Fab-pHast internalisation [2]: 150 fold
5Hg2-5Lg3 human Alya IgG1 conjugated to McMMAF (antibody, V domains shown, McMMAF on the engineered cysteines 239iCys and S442C (EU numbering) of the heavy constant region, Antibody-drug conjugate; human IgG1 Alya constant) VH: QVQLVQSGAEVKKPGASVKVSCKASGYTFTDYWMHWVRQAPGQRLEWMGAIDTSDSYTSYNQKFKGRVTITRDTSASTAYMELSSLRSEDTAVYYCARDYGNFYYYAMDYWGQGTLVTVSS VL: QTVVTQEPSFSVSPGGTVTLTCRSSTGAVTTSNYANWYQQTPGQAPRTLIYGTNNRAPGVPDRFSGSILGNKAALTITGAQADDESDYYCALWYSNHWVFGGGTKLTVL | 316 | 102 | 863 | no binding (tested: log (M) -8 (1e-8 M)) | – | –
5Hg2-5Lg1 human Alya IgG1 conjugated to McMMAF (antibody, V domains shown, McMMAF on the engineered cysteines 239iCys and S442C (EU numbering) of the heavy constant region, Antibody-drug conjugate; human IgG1 Alya constant) VH: QVQLVQSGAEVKKPGASVKVSCKASGYTFTDYWMHWVRQAPGQRLEWMGAIDTSDSYTSYNQKFKGRVTITRDTSASTAYMELSSLRSEDTAVYYCARDYGNFYYYAMDYWGQGTLVTVSS VL: QAVVTQEPSLTVSPGGTVTLTCRSSTGAVTTSNYANWFQQKPGQAPRTLIYGTNNRAPWTPARFSGSLLGGKAALTLSGAQPEDEAEYYCALWYSNHWVFGGGTKLTVL | 228 | 11.8 | 33.6 | no binding (tested: log (M) -8 (1e-8 M)) | – | EC50 (nM), Fab-pHast internalisation into NCI-H929 [2]: 0.62 nM; Fold-Change at 6 hours (10 nM), Fab-pHast internalisation [2]: 144 fold
C0120919 (antibody, V domains shown, 239iCys and S442C (EU numbering) in the constant region, purified, unconjugated; also called C0120919 human Alya IgG1 (unconjugated)) VH: not shown VL: QSALTQPPSVSVSSGQTASITCSGDKLGDKYASWYQQKPGQSPVLVIYQDTKRPSEIPERFSGSNSGNTATLTISGTQAMDEADYYCQAWDSSLVFGGGTKVTVL | – | – | – | – | binds | binding result [5]: no binding (tested: log (M) -8 (1e-8 M))
C0120904 human Alya IgG1 conjugated to McMMAF (antibody, V domains shown, McMMAF on the engineered cysteines 239iCys and S442C (EU numbering) of the heavy constant region, Antibody-drug conjugate; human IgG1 Alya constant) VH: not shown VL: SYELTQPPSVSVSPGQTATISCSGNKLGDGYVSWYQQKPGQSPVLVIYQDSKRPSGIPQRYSGSNSGNTATLTISGTQAIDEADYYCQAWDSSTVVFGGGTKVTVL | – | – | – | no binding (tested: log (M) -8 (1e-8 M)) | – | Average MM1.S IC50 [pM], cell kill [6]: 1490 pM; Average NCI-H929 IC50 [pM], cell kill [6]: 18100 pM
C0120904 (antibody, V domains shown, 239iCys and S442C (EU numbering) in the constant region, purified, unconjugated; also called C0120904 human Alya IgG1 (unconjugated)) VH: not shown VL: SYELTQPPSVSVSPGQTATISCSGNKLGDGYVSWYQQKPGQSPVLVIYQDSKRPSGIPQRYSGSNSGNTATLTISGTQAIDEADYYCQAWDSSTVVFGGGTKVTVL | – | – | – | – | binds | binding result [5]: no binding (tested: log (M) -8 (1e-8 M))
C0120913 (antibody, V domains shown, 239iCys and S442C (EU numbering) in the constant region, purified, unconjugated; also called C0120913 human Alya IgG1 (unconjugated)) VH: QVQLVQSGAEVKKPGESLKISCKGSGYSFTSYWVGWVRQMPGKGLEWMGIIYPGDSDARYGPSFQGQVTISADKSINTAYLQWNSLKASDTATYYCARLGDGAYYYYLDVWGRGTMVTVSS VL: SYELTQPPSVSESPGRTVTISCSGSSGSIASNFVHWYQQRPGSAPTTVIYEDDQRPSGVPDRFSGSIDSSSNSASLTISGLKTEDEADYYCQSYDNNDHAVFGGGTKLTVL | – | – | – | – | binds | –
C0120910 human Alya IgG1 conjugated to McMMAF (antibody, V domains shown, McMMAF on the engineered cysteines 239iCys and S442C (EU numbering) of the heavy constant region, Antibody-drug conjugate; human IgG1 Alya constant) VH: QVQLVESGGGVVQPGRSLRLSCEASEFTFSNYAMHWVRQAPDKGLEWVAGILYDGATAHYADSVKGRFTISRDNSKNTLYLQINSLRAEDTAVYYCARAHYYDYWSGLSFEYWGRGTLVTVSS VL: QSVLTQPPSASVSPGQTASIPCSGDDLGDKYIYWYQQKPGQSPVLVIYQDSRRPPGIPERFSGSNSGNTATLTISGTQPMDEADYYCQTWDTSSASAVFGGGTKVTVL | – | – | – | no binding (tested: log (M) -8 (1e-8 M)) | – | Average MM1.S IC50 [pM], cell kill [6]: 7490 pM; Average NCI-H929 IC50 [pM], cell kill [6]: 3990 pM
C0120910 (antibody, V domains shown, 239iCys and S442C (EU numbering) in the constant region, purified, unconjugated; also called C0120910 human Alya IgG1 (unconjugated)) VH: QVQLVESGGGVVQPGRSLRLSCEASEFTFSNYAMHWVRQAPDKGLEWVAGILYDGATAHYADSVKGRFTISRDNSKNTLYLQINSLRAEDTAVYYCARAHYYDYWSGLSFEYWGRGTLVTVSS VL: QSVLTQPPSASVSPGQTASIPCSGDDLGDKYIYWYQQKPGQSPVLVIYQDSRRPPGIPERFSGSNSGNTATLTISGTQPMDEADYYCQTWDTSSASAVFGGGTKVTVL | – | – | – | – | binds | –
